Laboratory results from article PMC10707464.

How the values were obtained:
[1] = tested on: CCCCCCCCCC(=O)CC(=O)N[C@H]1CCOC1=O; assay: purified protein; settings: 25.0 °C
CCCCSC1CCC(=O)O1 = assay: purified protein; settings: pH 8.0; 25.0 °C

Row | Substance | kcat/Km [1] | Km (CCCCSC1CCC(=O)O1) | kcat/Km (CCCCSC1CCC(=O)O1)
1 | SacPox (Sulfolobus acidocaldarius DSM 639) | 1.62e+07 ± 2.2e+06 M⁻¹ s⁻¹ | 24 ± 0.5 µM | 1.86e+06 ± 70000 M⁻¹ s⁻¹
2 | SsoPox (Saccharolobus solfataricus P2) |  | 80 ± 3 µM | 360000 ± 10000 M⁻¹ s⁻¹
